Data: patent US20120122239A1

Columns and labels:
[1] = biological target: glycosylated human proBNP (HyTest, Turku, Finland; Catalog No. 8GOB2) (human); experiment: sandwich CMIA, capture 15F11, 86.6 pM, against human NT-proBNP
[2] = biological target: human pro B-type natriuretic peptide (HyTest, Turku, Finland; Catalog No. 8PRO8) (human); experiment: as above
[3] = biological target: glycosylated human proBNP (HyTest, Turku, Finland; Catalog No. 8GOB2) (human); experiment: sandwich CMIA, capture 15F11, analyte 288.7 pM
[4] = biological target: human pro B-type natriuretic peptide (HyTest, Turku, Finland; Catalog No. 8PRO8) (human); experiment: sandwich CMIA, capture 15F11, analyte 288.7 pM
[5] = biological target: human NT-pro B-type natriuretic peptide (HyTest, Turku, Finland; Catalog No. 8NT1) (human); experiment: sandwich CMIA, capture 15F11, analyte 288.7 pM
human NT-pro B-type natriuretic peptide (HyTest, Turku, Finland; Catalog No. 8NT1) (human), sequence (chain, as listed by the source): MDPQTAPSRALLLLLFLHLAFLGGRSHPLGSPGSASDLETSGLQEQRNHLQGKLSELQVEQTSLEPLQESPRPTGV

[6] = biological target: glycosylated human proBNP (HyTest, Turku, Finland; Catalog No. 8GOB2) (human); experiment: sandwich CMIA, capture 15F11, 577.4 pM, against human NT-proBNP
[7] = biological target: glycosylated human proBNP (HyTest, Turku, Finland; Catalog No. 8GOB2) (human); experiment: sandwich CMIA, capture 15F11, analyte 577.4 pM
[8] = biological target: human pro B-type natriuretic peptide (HyTest, Turku, Finland; Catalog No. 8PRO8) (human); experiment: sandwich CMIA, capture 15F11, analyte 577.4 pM
[9] = biological target: human NT-pro B-type natriuretic peptide (HyTest, Turku, Finland; Catalog No. 8NT1) (human); experiment: sandwich CMIA, capture 15F11, analyte 577.4 pM
[10] = biological target: glycosylated human proBNP (HyTest, Turku, Finland; Catalog No. 8GOB2) (human); experiment: sandwich CMIA, capture 15C4, analyte 288.7 pM
[11] = biological target: human pro B-type natriuretic peptide (HyTest, Turku, Finland; Catalog No. 8PRO8) (human); experiment: sandwich CMIA, capture 15C4, analyte 288.7 pM
[12] = biological target: human NT-pro B-type natriuretic peptide (HyTest, Turku, Finland; Catalog No. 8NT1) (human); experiment: sandwich CMIA, capture 15C4, analyte 288.7 pM

glycosylated human proBNP (HyTest, Turku, Finland; Catalog No. 8GOB2) (human), sequence (chain, as listed by the source): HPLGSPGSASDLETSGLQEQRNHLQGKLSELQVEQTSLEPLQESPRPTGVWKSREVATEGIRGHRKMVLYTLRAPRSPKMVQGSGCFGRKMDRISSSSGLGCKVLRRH

% Cross-reactivity [1]: 136% | % Cross-reactivity [2]: 49.3% | Analyte rlus [3]: 16400 rlus | Analyte rlus [4]: 6140 rlus | Analyte rlus [5]: 14600 rlus | % Cross-reactivity [6]: 115% | Analyte rlus [7]: 38700 rlus | Analyte rlus [8]: 11400 rlus | Analyte rlus [9]: 33900 rlus | Analyte rlus [10]: 1220 rlus | Analyte rlus [11]: 12100 rlus | Analyte rlus [12]: 82800 rlus
Substance: anti-human NT-proBNP/anti-human proBNP labeled monoclonal antibody 29D12 (HyTest, Turku, Finland)
